Test results as given in patent publication US7268110B2, “Agents for preventing and treating thrombocytopenia” (Chugai Seiyaku Kabushiki Kaisha, priority 1996, dated 2007).

How the values were obtained:
platelet = assay: Effectiveness of PTH derivative, daily administration to mouse; assay type: in vivo; conditions: C57B1/6N mice, 200 μg/kg subcutaneously once a day for six days, blood 24 h after final administration
Experimental: Effectiveness of PTH Derivative
Ten-week old male C57B1/6N mice as purchased from Japan Charles River Co., Ltd. were used in the experiment.
Drug solutions to be administered were prepared basically from human PTH(1-84) and human PTH(1-34) by the same procedure as in Example 1 to give a drug concentration of 20 μg/mL.
Eighteen mice were divided into three groups, which were administered subcutaneously with the two drug solutions and a control (citrate buffer) for six days on a once-a-day basis in a volume of 10 mL/kg. […] The administration was initiated at 10 a.m.
After 24 h of the final administration, a blood sample was withdrawn from each mouse through the orbital vein. Peripheral corpuscle counts were obtained with an automatic corpuscle counter F-800 (TOA MEDICAL ELECTRONICS CO., LTD).

platelet counts [1] = assay: Test for daily administration to rabbit (platelet increasing action); assay type: in vivo; conditions: rabbits, 200 μg/kg subcutaneously daily
Experimental: Test for Daily Administration to Rabbit
Six 12-15 week old male Japanese albino rabbits JW/CSK were used in the experiment. The animals were individually kept in aluminum rabbit bracket cages Rb-1 (350^w×500^d×350^h mm) in a vavarium in a specific pathogen-free environment under the following conditions: temperature, 24±2° C.; humidity, 50±10%; illumination, light turned on at 5:00 and turned off at 19:00; ventilation, 15 changes/hr. Each animal was supplied with 120 g of a radiation-sterilized feed for rabbits RM (purchased from Funahashi Farm) per day. The animals were also allowed to drink to tap water ad libitum from an automatic water feeder.
Human PTH(1-84) was administered in a volume of 2 mL/vial at a concentration of 200 μg/mL. A solvent was also supplied in a volume of 2 mL/vial. Both the drug and the control were stored at −135° C. until use.
PTH (200 μg/kg) was administered to the rabbits subcutaneously at the back of their neck for 13 consecutive days. The solvent was similarly administered in the same volume as the dose of a rh-PTH solution calculated from their body weight.
Blood samples (0.5 mL) were withdrawn from the rabbits through the lateral auricular vein before the administration and on days 2, 6, 9 and 13 during the administration period. […]

platelet counts [2] = assay: Test for single-dose administration to mouse (platelet increasing action); assay type: in vivo; conditions: C57B1/6N mice, 10 μg/kg single dose through the tail vein
Experimental: Test for Single-Dose Administration to Mouse
Nine-week old male C57B1/6N mice as purchased from Japan Charles River Co. Ltd. were used in the experiment.
Human PTH(1-84) was dissolved in a citrate buffer (pH 5; containing 0.05% of Tween 80) at final concentrations of 1, 0.2 and 0.04 ˜g/mL so as to prepare the drug solutions to be administered.
Each of the thus prepared drug solutions and a control (citrate buffer) was administered to 15 mice through the tail vein in a volume of 10 mL/kg. […] The administration was initiated at 10 a.m.
After 3, 6 and 9 hours of the administration, five mice were picked up at random from each group of animals and blood samples were withdrawn through the orbital vein. At 10 a.m. on the same day, separate blood samples were taken from untreated mice (four in number) to obtain the preadministration value. Peripheral corpuscle counts were obtained with an automatic corpuscle counter F-800 (TOA MEDICAL ELECTRONICS CO., LTD.).

[3] = test system: CFU-GM (precursor cells of granulocytes and macrophages); conditions: report by Meytes et al, J. Clin. Invest. 1981; cited from earlier work
platelet count = assay: Test for daily administration to mouse (platelet increasing action); assay type: in vivo; conditions: C57B1/6N mice; for platelet count: day 5
Experimental: Test for Daily Administration to Mouse
Nine-week old male C57B1/6N mice as purchased from Japan Charles River Co., Ltd. were used in the experiment.
Drug solutions to be administered were prepared basically by the same procedure as in Example 1 to give drug concentrations of 5, 20 and 80 μg/mL.
The mice under test were divided into four groups, which were administered subcutaneously with the three drug solutions and a control (citrate buffer) once a day in a volume of 10 mL/kg. […] The administration was initiated at 10 a.m.
On days 5, 7 and 9 after the start of administration, five or six mice were picked up at random from each group of animals and blood samples were withdrawn through the orbital vein. The sampling of blood was timed to occur 24 h of the final administration. Separate blood samples were taken from untreated mice (five in number) to obtain the value for normal mouse. Peripheral corpuscle counts were obtained with an automatic corpuscle counter F-800 (TOA MEDICAL ELECTRONICS CO., LTD.).

[4] = test system: BFU-E (precursor cells of erythrocytes); conditions: report by Meytes et al, J. Clin. Invest. 1981; cited from earlier work

Row | Molecule | platelet increasing action (platelet) | platelet count relative to the initial level (platelet counts [1]; day 13) | platelet count relative to the initial value (platelet counts [1]; increase from day 2 until day 6) | platelet counts over the control (platelet counts [2]; 6 h after the administration) | platelet counts over the control (platelet counts [2]; 9 h after the administration) | in vitro colony formation by CFU-GM [3] | platelet count (platelet count; 200 μg/kg subcutaneously once a day) | platelet count (platelet count; 800 μg/kg subcutaneously once a day) | platelet count vs the control (platelet count; all treated groups (50, 200 and 800 μg/kg subcutaneously once a day), day 7) | in vitro colony formation by BFU-E [4]
1 | human PTH(1-34) (SVSEIQLMHNLGKHLNSMERVEWLRKKLQDVHNF; Parathyroid hormone; UniProt P01270 32-65, looked up, fragment) [PTH(134), partial peptide of PTH composed of 34 amino acids as counted from the N terminus; purchased from Peptide Institute, Inc, reference compound] | comparable platelet increasing action to PTH(1-84) | – | – | – | – | – | – | – | – | –
2 | human PTH(1-84) (protein, UniProt P01270 32-115, looked up, Parathyroid hormone) Parathyroid hormone: SVSEIQLMHNLGKHLNSMERVEWLRKKLQDVHNFVALGAPLAPRDAGSQRPRKKEDNVLVESHEKSLGEADKADVNVLTKAKSQ | platelet increasing action | substantially returned to the initial level | two to four | significant increase | significant increase | interfered | tendency to increase | tendency to increase | significantly higher | interfered
